Source: US20220226430A1 (TEXAS A AND M UNIVERSITY SYSTEM, published 2022)

Target: Clostridium difficile toxin B (TcdB) from C. difficile strain VPI 10463 (ribotype 087) (Clostridium difficile strain VPI 10463, UniProt P18177 2-2366)
Test: cell-based or functional assay

Sequence of Clostridium difficile toxin B (TcdB) from C. difficile strain VPI 10463 (ribotype 087) (P18177 2-2366): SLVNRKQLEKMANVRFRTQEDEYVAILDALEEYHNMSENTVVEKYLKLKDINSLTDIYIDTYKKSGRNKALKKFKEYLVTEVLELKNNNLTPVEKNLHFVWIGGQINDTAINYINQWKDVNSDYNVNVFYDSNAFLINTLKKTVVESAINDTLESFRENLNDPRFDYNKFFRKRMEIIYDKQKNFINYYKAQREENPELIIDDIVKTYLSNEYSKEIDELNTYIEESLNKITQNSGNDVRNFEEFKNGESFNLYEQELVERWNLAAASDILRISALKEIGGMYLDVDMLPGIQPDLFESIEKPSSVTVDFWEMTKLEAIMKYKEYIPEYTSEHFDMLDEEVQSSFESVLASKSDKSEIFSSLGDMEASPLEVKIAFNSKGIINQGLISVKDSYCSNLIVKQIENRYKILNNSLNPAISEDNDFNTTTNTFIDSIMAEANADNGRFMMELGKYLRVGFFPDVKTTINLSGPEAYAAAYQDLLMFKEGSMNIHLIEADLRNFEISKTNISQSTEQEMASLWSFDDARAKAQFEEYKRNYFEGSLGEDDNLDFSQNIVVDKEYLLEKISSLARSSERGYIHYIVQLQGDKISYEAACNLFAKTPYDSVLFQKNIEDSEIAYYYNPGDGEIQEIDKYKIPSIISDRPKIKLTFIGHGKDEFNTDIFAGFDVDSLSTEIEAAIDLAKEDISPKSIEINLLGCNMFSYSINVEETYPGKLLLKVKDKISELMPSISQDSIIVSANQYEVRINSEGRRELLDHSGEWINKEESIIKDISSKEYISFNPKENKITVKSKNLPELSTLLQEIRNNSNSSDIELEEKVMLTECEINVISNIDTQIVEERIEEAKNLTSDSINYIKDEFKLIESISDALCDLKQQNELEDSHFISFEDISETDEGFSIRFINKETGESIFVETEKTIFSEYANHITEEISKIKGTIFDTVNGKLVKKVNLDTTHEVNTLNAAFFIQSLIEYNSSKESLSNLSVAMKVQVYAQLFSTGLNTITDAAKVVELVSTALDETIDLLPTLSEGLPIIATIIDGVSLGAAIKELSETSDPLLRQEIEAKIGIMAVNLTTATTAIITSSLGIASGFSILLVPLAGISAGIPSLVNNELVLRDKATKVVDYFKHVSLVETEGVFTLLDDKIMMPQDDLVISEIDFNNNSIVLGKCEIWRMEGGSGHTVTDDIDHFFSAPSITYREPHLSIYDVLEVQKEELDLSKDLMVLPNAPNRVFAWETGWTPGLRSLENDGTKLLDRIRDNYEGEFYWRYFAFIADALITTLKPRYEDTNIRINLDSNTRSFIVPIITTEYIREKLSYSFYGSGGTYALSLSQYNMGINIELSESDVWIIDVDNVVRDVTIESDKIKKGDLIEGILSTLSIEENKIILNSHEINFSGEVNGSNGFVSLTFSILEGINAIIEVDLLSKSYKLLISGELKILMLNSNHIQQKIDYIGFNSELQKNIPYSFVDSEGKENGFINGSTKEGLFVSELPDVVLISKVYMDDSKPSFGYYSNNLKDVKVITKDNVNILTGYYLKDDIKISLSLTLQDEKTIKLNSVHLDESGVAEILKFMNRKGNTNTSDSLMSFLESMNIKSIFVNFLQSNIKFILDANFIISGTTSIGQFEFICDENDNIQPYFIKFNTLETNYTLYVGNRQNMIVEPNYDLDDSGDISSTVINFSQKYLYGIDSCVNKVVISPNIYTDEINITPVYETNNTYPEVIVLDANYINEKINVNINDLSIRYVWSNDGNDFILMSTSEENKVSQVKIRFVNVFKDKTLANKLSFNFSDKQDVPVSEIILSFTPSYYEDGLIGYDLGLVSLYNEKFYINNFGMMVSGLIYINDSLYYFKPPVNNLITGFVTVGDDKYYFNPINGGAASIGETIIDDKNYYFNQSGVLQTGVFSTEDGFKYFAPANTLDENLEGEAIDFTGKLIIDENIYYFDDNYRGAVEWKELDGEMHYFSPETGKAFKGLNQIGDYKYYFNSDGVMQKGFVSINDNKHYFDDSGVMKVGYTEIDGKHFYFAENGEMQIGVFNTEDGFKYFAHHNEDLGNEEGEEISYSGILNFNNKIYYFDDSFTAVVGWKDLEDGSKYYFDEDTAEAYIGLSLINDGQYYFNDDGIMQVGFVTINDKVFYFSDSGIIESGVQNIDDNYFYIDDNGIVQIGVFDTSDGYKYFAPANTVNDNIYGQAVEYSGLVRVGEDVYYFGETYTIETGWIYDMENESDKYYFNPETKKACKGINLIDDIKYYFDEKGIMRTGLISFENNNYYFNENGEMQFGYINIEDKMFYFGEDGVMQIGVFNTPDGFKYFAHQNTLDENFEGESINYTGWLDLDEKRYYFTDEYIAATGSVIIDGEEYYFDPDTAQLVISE

Binder | EC50 of TcdB neutralization (Vero cells, CellTiterGlo) | other results
DARPin 3.5B (designed binder, not shown: small tags and cut ends) GSDLGKKLLEAARAGQDDEVRILMANGADVNAKDTFGETPLHLAAWKGHLEIVEVLLKYGADVNASDLLGRTPLHLAAWRGHLEIVEVLLKNGADVNASDTGGYTPLHLAAALGHLEIVEVLLKHGADVNAQDKFGKTAFDISIDNGNEDLAEILQSSS | – | toxin-neutralization EC50: 13.3 nM
DARPin 1.4E (designed binder, not shown: small tags and cut ends) GSDLGKKLLEAARAGQDDEVRILMANGADVNATDHLGVTPLHLAAVLGHLEIVEVLLKHGADVNAYDILGRTPLHLAAWRGHLEIVEVLLKYGADVNADDTSGTTPLHLAAGEGHLEIVEVLLKYGADVNAQDKFGKTAFDISIDNGNEDLAEILQSSS | 3 nM | –
DARPin 1.2E (designed binder, not shown: small tags and cut ends) GSDLGKKLLEAARAGQDDEVRILMANGADVNAYDARGVTPLHLAAFSGHLEIVEVLLKNGADVNAIDVIGMTPLHLAAWIGHLEIVEVLLKHGADVNAVDRSGNTPLHLAAWLGHLEIVEVLLKYGADVNAQDKFGKTAFDISIDNGNEDLAEILQSSS | 2.4 nM | –
DARPin U3 (designed binder, not shown: small tags and cut ends) GSDLGKKLLEAARAGQDDEVRILMANGADVNADDRIGMTPLHLAAIGGHLEIVEVLLKNGADVNADDVHGRTPLHLAAGRGHLEIVEVLHGADVNAPDRWGRTPLHLAAHHGHLEIVEVLLKYGADVNAQDKFGKTAFDISIDSGNEDLAEILQSSS | – | toxin-neutralization EC50 (Vero cells): > 25 nM
